Laboratory results as given in paper PMC12678408.

Experiments:
[1] = target: peptidase domain (PD) of Pipistrellus abramus angiotensin-converting enzyme 2 (ACE2) (Pipistrellus abramus) (UniProt C7ECT9); assay: BLI
[2] = target: peptidase domain (PD) of Pitta sordida ACE2 (Pitta sordida); assay: BLI

For “RBD of BtPa-BetaCoV/GD2013 (GenBank accession: AIA62343.1) (domain or fragment)”, the Kd [1] was 23.4 nM and the Kd [2] was 138 nM.
